Experiment: yeast display, Sf9 membrane polyspecificity reagent, FACS + sequencing; frameworks hold sequencing errors
Procedure, shortened: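 A nanobody's polyreactivity label depends on the gate it was sorted from. Yeast display cells were stained with 10% biotinylated, detergent-solubilized Sf9 membrane reagent for 1 hour at 4 °C, enriched on streptavidin microbeads and sorted by FACS. The low and high (top ~1%) gates were set on anti-HA fluorescence for expression and streptavidin fluorescence for reagent binding.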

Sequence | polyreactivity (PSR sort gate)
QVQLVESGGGLVQAGGSLRLSCADTGRIFTRYAMGWYRQAPGKERELVASIRSGGSTYYADSVKGRFTISRDNAKNTVYLQMNSLKPEDTAVYFCAKGTFDLHYRKRYNYWGQGTQVTVSS | low polyreactivity
QVQLVESGGGLVQAGGSLRLSCADYGYIFVGNAMGCYRQAPGKDRELVAAINSGGSTNYADSVKGRFTISRDNEKNTVYLQMNSLKPEDTAVYYCNAEAPRYNYGRMDYLGQGTQVTVSS | low polyreactivity
QVQLVESGGGLVQAGGSLRLSCAGSGFIFTDYAMGWYRQAPGKERELVATISWSGSSTYYADSVKGRFTISRDNAKNTVYLQMNSLKPEDTAVYYCAAEFWYTYPYLVDYWGQGTQVTVSS | low polyreactivity
QVQLVESGGGLVQAGGSLRLSCAGSGFILGYNAMGWYRQAPGKERELVAVIDSIGDGTYYADSVKGRFTISRDNAKNTVYLQMISLKPEDTAVYYCDVDDYYEMDYWGQGTQVTVSS | low polyreactivity
QVQLVESGGGLVQAGGSLRLSCAGSGFTFKWYAMGWYRQAPGKERELVAGISRGGTTNYADSVKGRFTISRDNAKNTVYLQLNSLKPEDTAVYYCAKTSYVSYRGLTYYYWGQGTQVTVSS | high polyreactivity
QVQLVESGGGLVQAGGSLRLSCAGSGIIFAWYAMGWYRQAPGKERELVAAITSGGGSTYYADSVKGRFTISRDNAKNTVYLQMNSLKPEDTAVYYCAADYQTIGWGYDYWGQGTQVTVSS | low polyreactivity
QVQLVESGGGLVQAGGSLRLSCAGSGIIFFPYAMGWYRPAPGKERELVASINISDSSTYYADSVKGRFTISRDNAKNTVYLQMNSLKPQDTAVYYCAADNRGDSWYWHGYWGQGTQVTVSS | low polyreactivity
QVQLVESGGGLVQAGGSLRLSCAGSGNIFVFYVMGWYRQAAGKERELVASISSTGNTYYADSVKGRFTISRDNAKNTVYLQMNSLKPEDTAVYYGAADSHQNVSGWLRWPRMDYWGQGTQVTVSS | low polyreactivity
QVQLVESGGGLVQAGGSLRLSCAGSGSIFGRYVVGWYRLAPGKEREFVAAITYSGSSTYYADSVKWRFTISRDNAKNTVYVQINSLKPEDTAVYYCNTYPRSYYWMGYWGQGTQVTVSS | high polyreactivity
QVQLVESGGGLVQAGGSLRLSCAGSGSIFPFYVMGWYRQAPGKEREFVATISSRGGSTYYADSVKGRFTISRDNAKNTVYLQMNSLKPEDTAVYYCAAGWYRTDWGQRLHTYYYWGQGTQVTVSS | high polyreactivity
QVQLVESGGGLVQAGGSLRLSCAGSGSNFDVYTMGWYRKAPGKERELVAAINTGGGSTYYADSVKGRFTISRDNAMNTVYLQMNSLKPEDTAVYYCAASVYHYGPLYYWRQGTQVTVSS | low polyreactivity
QVQLVESGGGLVQAGGSLRLSCAGSGSTFDGNAMGWYRQAPGKDRELVAAITSGGSTNYADSVKGRFTISRDNAKNTVYLQMNSLKPEDTAVYYCAADTVSFSILYDYWGQGTQVTVSS | low polyreactivity
QVQLVESGGGLVQAGGSLRLSCAGSGSTFWVNDMGWSRQAPGKERELVASITISTGATYYADSVKGRFTISRDTAKNTVYVQINSLKPEDTAVYYCNVEFENSGWKSFDYWGQGTQVTVSS | low polyreactivity
QVQLVESGGGLVQAGGSLRLSCAGYGLTFEYYTMGWYRQAPGKGRELVAAITSSGGSTYYADSVKGRFTISRDNSKNTFYLQMISLKPEDTAVYYCNAYLTYEFPSYDYWGQGTQVTVSS | low polyreactivity
QVQLVESGGGLVQAGGSLRLSCAPCGSIFPAYTMGWYRRAPGKERELVAAISRRGGSTYYADCVKGRFTISRDNEKNTVYLQMNRLKPEDTAVYDCAKVPDYRFEYWGQGSQVTVSS | high polyreactivity
QVQLVESGGGLVQAGGSLRLSCAPSARTFVYNAMGWYRQAPGKERELVAAIDGGGDRTYYADSVKGRFTISRDNAKYTVYIQMYSLKPEDTAVYYCARDPGDTYYYSYPEGDYWGQGTQVTVSS | low polyreactivity
QVQLVESGGGLVQAGGSLRLSCAPSGFIFVSNAMVWYRQEPGKERELFADITSRGDSTYYADSVKGRFTISRDNAKNTVYLQMNSLKPEDTAVYYCAVDQLYFPWSFSWYGYWGQGTQVTVSS | low polyreactivity
QVQLVESGGGLVQAGGSLRLSCAPSGFIITYFGMGWYRQAPGKERELVAAISSRGGSTYYADSVKGRFTISRDTAKNTVYLQMNSLKPEDTAVYYFNTDSYRWTFSNRRYDYWGQGTQVTVSS | high polyreactivity
QVQLVESGGGLVQAGGSLRLSCAPSGFSIIGNAMGWYRQAPGKERELVAAISRRGGSTYYADSVKGRFTISRDNAKNTVYLQLNSLKPEDTAVYYCATDPGARVHYPTGDYWGQGTQVTVSS | high polyreactivity
QVQLVESGGGLVQAGGSLRLSCAPSGFTFRYYAMGWYRQAPGKERELVAAISWSVGSTYYADSVKGRFTISRDNAKNTVYLQMNSLKPEDTAVYYCNAAWPGYISNRLGYDYWGQGTQVTVSS | high polyreactivity
QVQLVESGGGLVQAGGSLRLSCAPSGFTFVFYAMGWYRQAPGKERELVAAISSRGGSTYYADSVKGRFTISRDNAKNTVYLQMNSLKPEDTAVYYCNVVSTYWTTYEEYYWGQGTQVTVSS | high polyreactivity
QVQLVESGGGLVQAGGSLRLSCAPSGFTFVYYAMGWYRQAPGKERELVASISGGGRTYYADSVKGRFTISRDNAKNTVYLQMNSLKPEDTAVYYCAAEQYIRPYYRWVWVSYGYWGQGSQVTVSS | high polyreactivity

Sequence | polyreactivity (PSR sort gate)
QVQLVESGGGLVQAGGSLRLSCAPSGFTFYPYAMGWSRQAPGKERELVAAIRYSGGSTYYADSVKGRFTISRDNAKNTVYLQMNSLKPEATAVYYCAADGSNPWYRNSWSRYRFGYWGQGTQVTVSS | high polyreactivity
QVQLVESGGGLVQAGGSLRLSCAPSGGIFGRNAMGWYRQAPGKESELVAGITNGGSTTYADSVKGRFTISRDNAKNTVYLQMNSLKPEDTAVYYCAVQLYRRWPYYQTHGYDYWGQGTQVTVTS | low polyreactivity
QVQLVESGGGLVQAGGSLRLSCAPSGGTFLSNVMVWYRQAPGKERELVAAISSRGGSTYFADSVKGRFTISRDNAKNNVYFQMNSLKPVDTAVYYCNVRAAHYKDRQYDYWGQGTQGTVSS | high polyreactivity
QVQLVESGGGLVQAGGSLRLSCAPSGIIFPEYDMGWYRQPPGKERELVAAITKSDGRTYYADSVKGRFTISRDNAKNSVYLQMNSLKPEDTAVYYCNADPSVVAYVGFVSWGQGTQVTLSS | low polyreactivity
QVQLVESGGGLVQAGGSLRLSCAPSGITFQRYVMGWYRQAPGKERELVAAISFSGSSTYYADSVKGRFTISRDNAKNTVYLQMNSLKPEDTAVYYCAADGSVPKYVPYPRYYGYGYWGQGSQVTVSS | high polyreactivity
QVQLVESGGGLVQAGGSLRLSCAPSGITFRYYAMGWYRQAPGKERELVAAITRSGSTTYADSVKGRFTISRDNAKNTVYLQMNSLKPEVTAVYYCAVDYYYLTGGVDYWGQGTQVTVSS | low polyreactivity
QVQLVESGGGLVQAGGSLRLSCAPSGLTIGHYAMGWYRQAPGKERELVAAISSGGSTYYADSVKGRFTISRDNAKNTVYLQMNSLKPEDTAVYYCAAVTVGTAYYARTFYYWGQGTQVTVSS | high polyreactivity
QVQLVESGGGLVQAGGSLRLSCAPSGNIFYINTMGWYRPAPGKERELVAAIDASDGSTYYADSVKGRFTISRDNAKNTVYLQMNSLKPEDTAVYYCATRRGYDSVYYLYTLWYYYWGQGTQVTVSS | low polyreactivity
QVQLVESGGGLVQAGGSLRLSCAPSGNTFWDNAMGWYRQAPGKERELVAAIRWSTGSTHYADSVKGRFTISRDNAKNTVYLQMNSVKPEDTAVYYCDATDYYYYRDKYYGYDYWGQGNQVTVSS | low polyreactivity
QVQLVESGGGLVQAGGSLRLSCAPSGRIFAGYTMGWYRQAPGKERELVAAISWSGGRTYYADSVKGRFTISRDNAKNTVYLQMNSLKPEDTAVYYCAKDGRYYSHYNYWGQGTQVTVSS | high polyreactivity
QVQLVESGGGLVQAGGSLRLSCAPSGRIFDYYAMGWYRQAPGKESELVAAISGSGGSTYYADSVKGRFTISRDNAKNTVYLQMNSLKPEHTAVYYCAYGYLYCYDYWGQGTQVTVSS | low polyreactivity
QVQLVESGGGLVQAGGSLRLSCAPSGRIFGTNDMGWYRQAPGKERELVADITSGGSTNYADSVKGSFTISRDNAMNTVYLPMNSLKPEDSAVYYCNARHHNKVARFDYWGQGTQVTVSS | low polyreactivity
QVQLVESGGGLVQAGGSLRLSCAPSGRIFPYYAMGRYRQAPGKERELVATITASSGSTYYADSVKGRFTISRDNAKNTVYLQMNSLKPEDTAVYYCAAGFVYRPGSYIRFDYWGQGTQVTVSS | high polyreactivity
QVQLVESGGGLVQAGGSLRLSCAPSGRIFQYNAMGWYRQAPGKERELGAAISNSTTRTYYADSVKGRFTISRDNAKNTVYLQMNSLKPEDTGVYYCAARGYFWSSYKYDYWVQGTQVTVSS | high polyreactivity
QVQLVESGGGLVQAGGSLRLSCAPSGRIFWYNAMGWYRQAPGKERELVAGISSSGTRTYYADSVKGRFTISRDNAKNTVYLQMNSLKPEDTAVYYCAAGYDLSYYWYDYWGQGTQVTVSS | low polyreactivity
QVQLVESGGGLVQAGGSLRLSCAPSGRIIGTNAMRWYIQAPRKERELVAAITWSGGSTYYADSVKGRFTISRDNAKNTVFLQMISLKPEDTAVYYCAKDYGYGPRFYYWGQGTQLTVSS | high polyreactivity
QVQLVESGGGLVQAGGSLRLSCAPSGRIIRKNAMGWSRQAPGKERELVAAITSVGSTYYADSVKGRFTISRDNAMNTVYLQMNSLKPEDTAVYYCNALQWSYNRGGYWGQGTQVTVSS | high polyreactivity
QVQLVESGGGLVQAGGSLRLSCAPSGRTFNDYAMGWYRQAPGKESELVAAIDSDGDTNYADSVKGRFTISRDNAKNTVYLQMNSLKPEDTAVYYCNAVRLVVQEWYYYFTFDYWGQGTQVTVSS | low polyreactivity
QVQLVESGGGLVQAGGSLRLSCAPSGRTFNPYALGWYRPAPGKEREFVYADSVKGRFTISRDNAKNTVYLQMNSLKPEDTAVYYCAADVYPDTLHPYNYDYWGQGTQVTLSS | low polyreactivity
QVQLVESGGGLVQAGGSLRLSCAPSGRTFQLYAMGWSRQAPGKERELVAGITITGGSTYYADSVKGRFTISRDNAKNTVYLLMNSLKPEDTAVYYCNKPRFSERYGMGYWGQGTQVTVSS | low polyreactivity
QVQLVESGGGLVQAGGSLRLSCAPSGRTFRRYAMGWYRQAPGKEMEFVAAISRRTASTYYADSVKGRFTISRDNAKNTDYLQMNSLKPEDTAVYYCATKSGYSVGNYRYGYWVQGTQVTVSS | low polyreactivity

Source: the nanobody polyreactivity screen of Harvey et al. (2022)
